# Measured values taken from article PMC10209092.
# B1: myc-tagged ULK1 (UNC-51 like kinase 1), wild type, O75385 S556A; T660A (protein)
# chain: MEPGRGGTETVGKFEFSRKDLIGHGAFAVVFKGRHREKHDLEVAVKCINKKNLAKSQTLLGKEIKILKELKHENIVALYDFQEMANSVYLVMEYCNGGDLADYLHAMRTLSEDTIRLFLQQIAGAMRLLHSKGIIHRDLKPQNILLSNPAGRRANPNSIRVKIADFGFARYLQSNMMAATLCGSPMYMAPEVIMSQHYDGKADLWSIGTIVYQCLTGKAPFQASSPQDLRLFYEKNKTLVPTIPRETSAPLRQLLLALLQRNHKDRMDFDEFFHHPFLDASPSVRKSPPVPVPSYPSSGSGSSSSSSSTSHLASPPSLGEMQQLQKTLASPADTAGFLHSSRDSGGSKDSSCDTDDFVMVPAQFPGDLVAEAPSAKPPPDSLMCSGSSLVASAGLESHGRTPSPSPPCSSSPSPSGRAGPFSSSRCGASVPIPVPTQVQNYQRIERNLQSPTQFQTPRSSAIRRSGSTSPLGFARASPSPPAHAEHGGVLARKMSLGGGRPYTPSPQVGTIPERPGWSGTPSPQGAEMRGGRSPRPGSSAPEHSPRTSGLGCRLHAAPNLSDLHVVRPKLPKPPTDPLGAVFSPPQASPPQPSHGLQSCRNLRGSPKLPDFLQRNPLPPILGSPTKAVPSFDFPKTPSSQNLLALLARQGVVMTPPRNRALPDLSEVGPFHGQPLGPGLRPGEDPKGPFGRSFSTSRLTDLLLKAAFGTQAPDPGSTESLQEKPMEIAPSAGFGGSLHPGARAGGTSSPSPVVFTVGSPPSGSTPPQGPRTRMFSAGPTGSASSSARHLVPGPCSEAPAPELPAPGHGCSFADPITANLEGAVTFEAPDLPEETLMEQEHTEILRGLRFTLLFVQHVLEIAALKGSASEAAGGPEYQLQESVVADQISLLSREWGFAEQLVLYLKVAELLSSGLQSAIDQIRAGKLCLSSTVKQVVRRLNELYKASVVSCQGLSLRLQRFFLDKQRLLDRIHSITAERLIFSHAVQMVQSAALDEMFQHREGCVPRYHKALLLLEGLQHMLSDQADIENVTKCKLCIERRLSALLTGICA
# Molecular target: endogenous AMPKα (5'-adenosine monophosphate-activated protein kinase, α subunit), Q13131
# Experiment: co-immunoprecipitation, quantified band intensity
# Conditions: chain shown with the change, n=2 (WT n=3), read off a plot
# Sequence of endogenous AMPKα (5'-adenosine monophosphate-activated protein kinase, α subunit), Q13131 (Q13131 whole entry): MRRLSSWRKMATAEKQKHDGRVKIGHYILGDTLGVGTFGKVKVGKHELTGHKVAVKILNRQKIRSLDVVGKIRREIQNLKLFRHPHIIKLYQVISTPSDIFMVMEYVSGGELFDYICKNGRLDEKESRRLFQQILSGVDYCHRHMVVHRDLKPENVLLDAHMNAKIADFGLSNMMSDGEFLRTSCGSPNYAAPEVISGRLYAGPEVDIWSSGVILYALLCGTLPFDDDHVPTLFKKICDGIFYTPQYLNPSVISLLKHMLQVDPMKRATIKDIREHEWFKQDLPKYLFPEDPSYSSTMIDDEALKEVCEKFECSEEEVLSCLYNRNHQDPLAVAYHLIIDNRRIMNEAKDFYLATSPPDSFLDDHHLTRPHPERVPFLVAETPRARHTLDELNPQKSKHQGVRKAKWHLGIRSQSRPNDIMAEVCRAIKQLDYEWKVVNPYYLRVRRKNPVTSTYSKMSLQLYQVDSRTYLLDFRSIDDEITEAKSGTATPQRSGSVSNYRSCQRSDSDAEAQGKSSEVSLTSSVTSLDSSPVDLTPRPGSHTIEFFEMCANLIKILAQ
binder,measurement,setting,value
B1,response (relative AMPK-ULK1 interaction),"amino acids +, A769662 +, parent: est. 1.2",1
same,response (relative AMPK-ULK1 interaction),"amino acids +, A769662 -, parent: est. 1.0",0.4
same,response (relative AMPK-ULK1 interaction),"amino acids -, A769662 +, parent: est. 1.1",0.15
same,response (relative AMPK-ULK1 interaction),"amino acids -, A769662 -, parent: est. 0.25",0.1
